From patent US20210386836

What was measured:
human C5a, P01031 = molecular target: T1, human C5a, P01031
T1 chain: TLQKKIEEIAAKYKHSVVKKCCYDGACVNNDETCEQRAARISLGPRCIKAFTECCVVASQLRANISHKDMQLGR

Factor H, P08603 = molecular target: T2, Factor H, P08603
T2 chain: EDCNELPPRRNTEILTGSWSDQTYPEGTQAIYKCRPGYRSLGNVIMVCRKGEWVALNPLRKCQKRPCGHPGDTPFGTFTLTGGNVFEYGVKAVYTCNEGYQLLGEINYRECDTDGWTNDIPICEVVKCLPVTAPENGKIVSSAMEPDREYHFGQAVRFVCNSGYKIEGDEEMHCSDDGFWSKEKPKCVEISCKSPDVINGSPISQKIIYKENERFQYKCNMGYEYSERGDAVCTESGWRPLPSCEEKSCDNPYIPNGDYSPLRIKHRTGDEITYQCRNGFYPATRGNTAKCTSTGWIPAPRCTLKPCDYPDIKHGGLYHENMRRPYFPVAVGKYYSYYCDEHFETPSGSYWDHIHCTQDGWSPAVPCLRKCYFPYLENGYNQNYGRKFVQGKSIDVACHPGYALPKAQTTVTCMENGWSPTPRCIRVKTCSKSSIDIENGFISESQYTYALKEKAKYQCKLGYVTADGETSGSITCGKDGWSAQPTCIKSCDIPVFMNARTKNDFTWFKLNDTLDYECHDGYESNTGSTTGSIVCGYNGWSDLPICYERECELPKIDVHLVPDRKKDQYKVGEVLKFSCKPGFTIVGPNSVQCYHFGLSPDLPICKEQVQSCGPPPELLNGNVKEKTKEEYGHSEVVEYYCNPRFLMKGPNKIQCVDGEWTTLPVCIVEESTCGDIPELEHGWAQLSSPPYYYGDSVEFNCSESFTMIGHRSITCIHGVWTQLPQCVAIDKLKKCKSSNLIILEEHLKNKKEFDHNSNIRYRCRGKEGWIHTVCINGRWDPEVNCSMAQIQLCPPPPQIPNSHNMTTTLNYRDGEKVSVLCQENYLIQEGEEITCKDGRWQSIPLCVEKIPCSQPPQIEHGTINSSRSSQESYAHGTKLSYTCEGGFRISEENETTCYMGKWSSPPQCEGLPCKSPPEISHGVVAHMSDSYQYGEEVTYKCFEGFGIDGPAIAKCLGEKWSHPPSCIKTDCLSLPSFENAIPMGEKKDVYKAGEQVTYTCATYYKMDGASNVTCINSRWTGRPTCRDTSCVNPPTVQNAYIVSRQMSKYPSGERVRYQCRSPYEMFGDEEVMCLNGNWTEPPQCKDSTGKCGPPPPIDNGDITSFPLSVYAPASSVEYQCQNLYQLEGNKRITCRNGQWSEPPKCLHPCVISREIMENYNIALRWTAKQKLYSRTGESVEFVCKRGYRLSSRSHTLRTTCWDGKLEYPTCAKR

[1] = molecular target: T3, C4-Binding protein, P04003
T3 chain 1: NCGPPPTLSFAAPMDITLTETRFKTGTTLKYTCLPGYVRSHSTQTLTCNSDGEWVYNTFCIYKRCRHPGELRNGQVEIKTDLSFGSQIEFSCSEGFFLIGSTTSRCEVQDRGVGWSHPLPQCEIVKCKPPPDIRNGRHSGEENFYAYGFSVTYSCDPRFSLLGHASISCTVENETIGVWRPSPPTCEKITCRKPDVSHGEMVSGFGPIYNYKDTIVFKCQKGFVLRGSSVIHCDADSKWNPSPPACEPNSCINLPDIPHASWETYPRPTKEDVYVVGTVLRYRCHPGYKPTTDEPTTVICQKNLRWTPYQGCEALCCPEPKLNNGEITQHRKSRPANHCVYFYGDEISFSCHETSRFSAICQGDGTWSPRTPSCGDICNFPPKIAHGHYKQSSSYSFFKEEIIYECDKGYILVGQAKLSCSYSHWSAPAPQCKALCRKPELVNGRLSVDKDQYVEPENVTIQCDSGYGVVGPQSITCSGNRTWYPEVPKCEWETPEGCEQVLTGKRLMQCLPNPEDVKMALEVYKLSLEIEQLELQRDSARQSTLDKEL
T3 chain 2: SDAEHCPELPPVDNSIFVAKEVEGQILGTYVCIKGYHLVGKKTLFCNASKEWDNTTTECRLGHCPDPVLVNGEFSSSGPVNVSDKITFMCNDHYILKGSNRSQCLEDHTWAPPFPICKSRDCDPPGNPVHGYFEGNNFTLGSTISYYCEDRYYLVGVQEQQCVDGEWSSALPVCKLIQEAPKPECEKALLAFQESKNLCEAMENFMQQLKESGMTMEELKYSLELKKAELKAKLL

C1s, P09871 = molecular target: T4, C1s, P09871
T4 chain: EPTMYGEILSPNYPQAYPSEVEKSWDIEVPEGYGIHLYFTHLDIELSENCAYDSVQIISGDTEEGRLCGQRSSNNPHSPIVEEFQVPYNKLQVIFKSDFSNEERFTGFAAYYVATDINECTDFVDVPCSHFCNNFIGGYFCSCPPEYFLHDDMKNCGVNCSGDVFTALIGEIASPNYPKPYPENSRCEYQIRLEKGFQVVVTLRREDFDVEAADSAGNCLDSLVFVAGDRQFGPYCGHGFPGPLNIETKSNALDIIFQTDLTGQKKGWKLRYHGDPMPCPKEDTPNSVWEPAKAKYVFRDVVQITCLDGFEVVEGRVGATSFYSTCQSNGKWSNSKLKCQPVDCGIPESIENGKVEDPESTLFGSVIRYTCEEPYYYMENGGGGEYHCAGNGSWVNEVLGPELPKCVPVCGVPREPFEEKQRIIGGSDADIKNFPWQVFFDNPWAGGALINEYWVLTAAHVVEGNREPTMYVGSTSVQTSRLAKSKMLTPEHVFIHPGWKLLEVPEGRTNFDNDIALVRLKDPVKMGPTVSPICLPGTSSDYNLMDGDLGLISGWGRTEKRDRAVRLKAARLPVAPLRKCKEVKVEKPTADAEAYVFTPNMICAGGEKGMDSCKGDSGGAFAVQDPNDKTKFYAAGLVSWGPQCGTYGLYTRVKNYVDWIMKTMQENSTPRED

Factor B, P00751, sequence (P00751 26-764): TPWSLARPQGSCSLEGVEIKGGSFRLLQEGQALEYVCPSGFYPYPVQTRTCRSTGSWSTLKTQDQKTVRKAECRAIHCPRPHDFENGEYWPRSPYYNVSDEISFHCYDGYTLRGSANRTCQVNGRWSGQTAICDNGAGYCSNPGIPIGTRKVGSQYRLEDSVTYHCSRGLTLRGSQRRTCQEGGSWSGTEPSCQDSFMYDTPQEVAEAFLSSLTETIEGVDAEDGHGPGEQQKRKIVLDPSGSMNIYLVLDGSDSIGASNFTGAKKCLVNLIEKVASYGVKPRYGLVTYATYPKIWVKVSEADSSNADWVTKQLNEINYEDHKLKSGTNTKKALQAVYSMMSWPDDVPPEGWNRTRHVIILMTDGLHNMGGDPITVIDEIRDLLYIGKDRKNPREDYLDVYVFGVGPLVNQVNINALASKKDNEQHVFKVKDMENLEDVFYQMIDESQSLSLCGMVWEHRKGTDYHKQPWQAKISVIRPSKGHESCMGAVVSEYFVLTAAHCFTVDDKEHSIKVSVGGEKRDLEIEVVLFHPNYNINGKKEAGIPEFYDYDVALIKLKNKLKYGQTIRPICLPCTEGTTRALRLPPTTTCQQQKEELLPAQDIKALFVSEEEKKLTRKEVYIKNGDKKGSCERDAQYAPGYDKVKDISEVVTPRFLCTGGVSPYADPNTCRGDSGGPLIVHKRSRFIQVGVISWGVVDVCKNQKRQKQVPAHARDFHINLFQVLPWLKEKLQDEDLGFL

B1: PrtV(Pro-B) (protein)
chain: DTVNGSESVKTEATQASGSSVQDNATAKTTVTTNSNSSNNVSNVQTDTVKEAATSNVDSVASQNQATTAQQAKTTADTADQTVPPTTYKDHVKGNVQTAWDNGYKGQGMVVAVIDSGADTNHKDFSKAPESPAISKEDADKKISELGYGKYASEKFPFVYNYASRDNNWVKDDGPDASEHGQHVAGIIGADGQPNGNERYAVGVAPETQLMMMRVFNDQFADENTDDIAQAIYDAVKLGANVIQMSLGQGVAAANLNDVEQKAVEYATQHGVFVSISASNNGNSASVTGEEVPYKPGGADGNFEPFSSSTVANPGASRNAMTVAAENSVVGAGDDMADFSSWGPLQDFTLKPDVSAPGVSVTSTGNDNRYNTMSGTSMAGPFNAGVAALVMQRLKATTNLNGADLVQATKALIMNTAKPMTQQGYDTPVSPRRQGAGEIDAGAATESPVYVVAADGTSSVSLRKVGDSTQFALTFKNLSDKDQTYTFDDFGGGLTEVRDADTGTFHDVYLAGAHVYGNKTVTVKAGQSATYNFTLSLTGLKENQLVEGWLRFVGNDGQNQLVVPYLAYYGDMTSEDVFDKAANQEGTVYGGNYFVNEDNYPRGVADEDSLKALVNLEGNYNWQQVAKLYQDGKVAFSPNADGKSDLLKPYAFVKQNLKDLKVEVLDKSGKVVRVVADEQGLDKSYYESGVNKDVTLSVSMRNNPNTLAWDGKVYDDKAGEMVNAADGEYTYRYVATLYNDGVNKVQTADYPVVIDTTAPVLSNVKYDAATHTLSFDYKDTGSGFTDYSYAVVKVNDKTFGYKLNDGKNSKFLDAAKTSGTFKAVLGSDTLAALTAAKNALSVAVSDVADNTSTVTLLVNGNNDATTKVSVWNATNGLELDQSSPDYQAATSTYNLRGNATSDFYYNGALVQVDNSGNFVVPVSTSDTAVVFTSDAAGKNVVYKLNTATPKAVFAWQVNNTVKENFGIVLDTVVSNNKDDVVVQAAVTKGDNVEAYARDYFTGAVYKADVKDGLATFHVKVTNNSGRTVLLGWTEVVGPTFNDVQRTSANGVYLGVDTDTENPTPAPAFTSADQLGTNVVQEKADSATIGNPGDLPGHSLKDLTTRADANPDIHFDYLKDNDYNWVGAQAVKDGVYNPSTQVFTLTGKVDPNVKSLVVLGDSYNEDDPVNKVNLNSDGTFSFQFHTAPTSQRPVAYIYTKDDGSTTRGTMELILDTVLPTLSLNNVANLQLDSNGDYQVYTNNKDFSVSGEATDNLDGYRFFFNGDNDYREFHNSGVNFVAEAHQDGSTVTNPYPAYKFSKTFNLADATGETTHVYTLSVVDLTGNTVTRKFYVHY
**Q.** How did the “protein cleavage assay (SDS-PAGE)” value (human C5a, P01031) turn out when B1 was run?
**A.** Its value is “has activities against”.

**Q.** And the “protein cleavage assay (SDS-PAGE)” value (TNF-α)?
**A.** The value was “has activities against”.

**Q.** What about the “proteolytic activity (SDS-PAGE)” value (Factor H, P08603) of the same protein?
**A.** Its value is “None of the complement proteins tested show evidence of breakdown”.

**Q.** What about the “proteolytic activity (SDS-PAGE)” value [1] of the same protein?
**A.** The value was “None of the complement proteins tested show evidence of breakdown”.

**Q.** And the “protein cleavage assay (SDS-PAGE)” value (IL-3)?
**A.** Its value is “has activities against”.

**Q.** What about the “protein cleavage assay (SDS-PAGE)” value (IP-10) of the same protein?
**A.** Its value is “has activities against”.

**Q.** What about the “protein cleavage assay (SDS-PAGE)” value (IL-17) of the same protein?
**A.** The value was “has activities against”.

**Q.** What about the “proteolytic activity (SDS-PAGE)” value (C1s, P09871) of the same protein?
**A.** The value was “None of the complement proteins tested show evidence of breakdown”.

**Q.** And the “proteolytic activity (SDS-PAGE)” value (C3, P01024)?
**A.** Its value is “None of the complement proteins tested show evidence of breakdown”.

**Q.** And the “proteolytic activity (SDS-PAGE)” value (Factor B, P00751)?
**A.** The value was “None of the complement proteins tested show evidence of breakdown”.
